From IntAct's records for PubMed 16834335 come the findings set out here.

B1: Modulator of FtsH protease HflC (Escherichia coli (strain K12)), P0ABC3 (parent)
chain: MRKSVIAIIIIVLVVLYMSVFVVKEGERGITLRFGKVLRDDDNKPLVYEPGLHFKIPFIETVKMLDARIQTMDNQADRFVTKEKKDLIVDSYIKWRISDFSRYYLATGGGDISQAEVLLKRKFSDRLRSEIGRLDVKDIVTDSRGRLTLEVRDALNSGSAGTEDEVTTPAADNAIAEAAERVTAETKGKVPVINPNSMAALGIEVVDVRIKQINLPTEVSEAIYNRMRAEREAVARRHRSQGQEEAEKLRATADYEVTRTLAEAERQGRIMRGEGDAEAAKLFADAFSKDPDFYAFIRSLRAYENSFSGNQDVMVMSPDSDFFRYMKTPTSATR
partner: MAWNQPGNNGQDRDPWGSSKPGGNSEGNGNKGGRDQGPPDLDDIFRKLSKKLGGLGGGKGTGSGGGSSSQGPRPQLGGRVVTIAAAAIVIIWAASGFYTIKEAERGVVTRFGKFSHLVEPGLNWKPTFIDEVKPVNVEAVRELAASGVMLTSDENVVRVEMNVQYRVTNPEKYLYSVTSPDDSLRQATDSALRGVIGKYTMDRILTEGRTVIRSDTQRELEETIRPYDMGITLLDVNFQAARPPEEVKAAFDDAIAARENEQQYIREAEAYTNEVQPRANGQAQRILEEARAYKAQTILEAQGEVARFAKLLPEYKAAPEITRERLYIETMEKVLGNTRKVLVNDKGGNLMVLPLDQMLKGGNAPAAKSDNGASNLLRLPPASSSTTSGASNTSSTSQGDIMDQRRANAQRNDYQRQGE

This test covers variants of B1. The conditions noted are these: with hflk_ecoli hflK.
For the variant MRKSVIAIIIIVLVVLYMSVFVVKEGERGITLRFGKVLRDDDNKPLVYEPGLHFKIPFIETVKMLDARIQTMDNQADRFVTKEKKDLIVDSYIKWRISDFSRYYLATGGGDISQAEVLLKRKFSDRLRSEIGRLDVKDIVTDSRGRLTLEVRDALNSGSAGTEDEVTTPAADNAIAEAAERVTAETKGKVPVINPNSMAALGIEVVDVRIKQINLPTEVSEAIYNRMRAEREAVARRHRSQGQEEAEKLRATADYEVTRTLAEAERQGRIMRGEGDAEAAKLFADIFSKDPDFYAFIRSLRAYENSFSGNQDVMVMSPDSDFFRYMKTPTSATR [A286I], the “effect of a mutation on the interaction” value was “decreasing interaction strength”.
